B1: Ydj1 (natural protein, yeast, UniProt P25491 1-409, looked up)
chain: MVKETKFYDILGVPVTATDVEIKKAYRKCALKYHPDKNPSEEAAEKFKEASAAYEILSDPEKRDIYDQFGEDGLSGAGGAGGFPGGGFGFGDDIFSQFFGAGGAQRPRGPQRGKDIKHEISASLEELYKGRTAKLALNKQILCKECEGRGGKKGAVKKCTSCNGQGIKFVTRQMGPMIQRFQTECDVCHGTGDIIDPKDRCKSCNGKKVENERKILEVHVEPGMKDGQRIVFKGEADQAPDVIPGDVVFIVSERPHKSFKRDGDDLVYEAEIDLLTAIAGGEFALEHVSGDWLKVGIVPGEVIAPGMRKVIEGKGMPIPKYGGYGNLIIKFTIKFPENHFTSEENLKKLEEILPPRIVPAIPKKATVDECVLADFDPAKYNRTRASRGGANYDSDEEEQGGEGVQCASQ
B2: YSY (other, yeast, UniProt P25491 1-105, looked up)
chain: MVKETKFYDILGVPVTATDVEIKKAYRKCALKYHPDKNPSEEAAEKFKEASAAYEILSDPEKRDIYDQFGEDGLSGAGGAGGFPGGGFGFGDDIFSQFFGAGGAQNEDAFNIFSQFFGGSSPFGGADDSGFSFSSYPSGGGAGMGGMPGGMGGMHGGMGGMPGGFRSASSSPTYPEEETVQVNLPVSLEDLFVGKKKSFKIGRKGPHGASEKTQIDIQLKPGWKAGTKITYKNQGDYNPQTGRRKTLQFVIQEKSHKSFKRDGDDLVYEAEIDLLTAIAGGEFALEHVSGDWLKVGIVPGEVIAPGMRKVIEGKGMPIPKYGGYGNLIIKFTIKFPENHFTSEENLKKLEEILPPRIVPAIPKKATVDECVLADFDPAKYNRTRASRGGANYDSDEEEQGGEGVQCASQ
B3: SYS (other, yeast, UniProt P25294 1-121, looked up)
chain: MVKETKLYDLLGVSPSANEQELKKGYRKAALKYHPDKPTGDTEKFKEISEAFEILNDPQKREIYDQYGLEAARSGGPSFGPGGPGGAGGAGGFPGGAGGFSGGHAFSNEDAFNIFSQFFGGAGGAQRPRGPQRGKDIKHEISASLEELYKGRTAKLALNKQILCKECEGRGGKKGAVKKCTSCNGQGIKFVTRQMGPMIQRFQTECDVCHGTGDIIDPKDRCKSCNGKKVENERKILEVHVEPGMKDGQRIVFKGEADQAPDVIPGDVVFIVSERPHPNFKRDGDDLIYTLPLSFKESLLGFSKTIQTIDGRTLPLSRVQPVQPSQTSTYPGQGMPTPKNPSQRGNLIVKYKVDYPISLNDAQKRAIDENF
B4: Sis1 (natural protein, yeast, UniProt P25294 1-352, looked up)
chain: MVKETKLYDLLGVSPSANEQELKKGYRKAALKYHPDKPTGDTEKFKEISEAFEILNDPQKREIYDQYGLEAARSGGPSFGPGGPGGAGGAGGFPGGAGGFSGGHAFSNEDAFNIFSQFFGGSSPFGGADDSGFSFSSYPSGGGAGMGGMPGGMGGMHGGMGGMPGGFRSASSSPTYPEEETVQVNLPVSLEDLFVGKKKSFKIGRKGPHGASEKTQIDIQLKPGWKAGTKITYKNQGDYNPQTGRRKTLQFVIQEKSHPNFKRDGDDLIYTLPLSFKESLLGFSKTIQTIDGRTLPLSRVQPVQPSQTSTYPGQGMPTPKNPSQRGNLIVKYKVDYPISLNDAQKRAIDENF

Biological target: the molecule itself
Test: SAXS

Stoichiometry N, 2:
B1, B2, B3, B4
